From the nanobody polyreactivity screen of Harvey et al. (2022)

test: yeast display, Sf9 membrane polyspecificity reagent, FACS + sequencing; frameworks hold sequencing errors
Summary of the method: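 Synthetic nanobody libraries on Saccharomyces cerevisiae BJ5465 were galactose-induced for 36–48 hours, stained 1 hour at 4 °C with 10% biotinylated, detergent-solubilized Sf9 membrane reagent and enriched on streptavidin microbeads. FACS then separated cells into low and high (top ~1%) gates by anti-HA (expression) and streptavidin (reagent binding) fluorescence. Genes were colony-PCR amplified, MiSeq 2 × 250 sequenced and CDR-length filtered. A clone's polyreactivity label is that of its gate of origin.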

Row | Sequence | polyreactivity (PSR sort gate)
1 | QVQLVESGGGLVQAGGSLRLSCAASGRIFKVNTMGWYRQAPGKERELVASIRGGGSTNYADSVKGRFTISRDNAKNTVYLQMNSLKPEDTAVYYCAAGTSKPTPIYGYWGQGTQVTVSS | low polyreactivity
2 | QVQLVESGGGLVQAGRSLRLSCAASGYTFYVYAMGWYRQAPGKERELVASISSGGITYYADSVKGRFTISRDNAKNTVYLQMNILKPEDTAVYYCAADWQWTYDYWGQGTQVTVSS | low polyreactivity
3 | QVQLVESGGGLVQAGGSLRLSCAASGFTFSKYTMGWYRQAPGQERELVARITRRGGSTYYADSVKGRFTISRDNAKNTVYLQMNSLKPEDTAVYYFAADVYAYNGEYDYWGQGTQVTVSS | high polyreactivity
4 | QVQLVESGGGLVQAGGSLRLSCAASGRTDYRYAMGWYRQAPGKERELVAAISRSGGRTYYADSVKGRFTISRDNAKNTVYLQMNSQKPEDTAVYYCASRGLGSGPVVEGDYWGQGTQVTVSS | high polyreactivity
5 | QVQLVESGGGLVQAGGSLRLSCAASGSTFYRYAMGWYRQAPGKERELVAAISKRGGSTYYADSVKGRFTISRDNAKNTVYLQMNSLKPEDTAVYYCAADPFHYGGGDDYWGQGTQVTVSS | high polyreactivity
6 | QVQLVESGGGLVQAGGSLRISCAASGITFPVYTMGWYRQAPGKERELVAAITSSGGSTYYADSVKGRFTISRDNAKNTVYLQMNSLKPEDTAVYYCAARDYGRHHTYGYWGQGTQVTVSS | high polyreactivity
7 | QVQLVESGGGLVQAGGSLRLSCAATGRTFYQYAKGWSRQAPGKERELVAAISRRGGSTYYADSVKGRFTISRDNAKNTVYLQMNSLKPEDTAVYYCAAQRQYGKFDYWGQGTQVTVSS | high polyreactivity
8 | QVQLVESGGGLVQAGGSLRLSCAASGSTFTDYAMGWYRQAPGKERELVAAIRFSGGSTYYADSVKGRFTISRDNAKNTVYLQMNSLKPEDTAVYYCAAGGYPWLDSWGQGTQVTVSS | low polyreactivity
9 | QVQLVESCGGLVQAGGSLRLSCAGSGSTFVYYAMGWSRQAPGQERELVAAISRSGGSTYYADSVKGRFTISRDNAKNTVYLQMHSLKPEDTAVYYCNKYAIFPAYRYPRSDYWGQGTQVTVSS | high polyreactivity
10 | QVQLVESGGGLVQAGGSLRLSCAASGSTFSYYAMGWYRQAPGKERELVAAITKRGGSTYYADSVKGRFTISRDNAKNTVYLQMNSLKPEVTAVYYCAAKRKSYYSYNFDYWGQGTQVTVSS | high polyreactivity
11 | QVQLVESGGGLGQAGGSLRLSCAASGRIFSQNAMGWYRQAPGNERELVAAITGNGGDTYYADSVKGRFTISRDNAKNTVYLQMNSLKPEDTAVYYCAARVPPVYGRVGGYHYWGPGTQVTVSS | low polyreactivity
12 | QVQLEESGGGLVQAGGSLRLSCAASGRTFYRYAMGWYRQAPGKERELVAAITWSGGSTYYADSVKGRFTTSRDNAKNTVYLQMNSLKPEDTAVYYCARRLYPYRPTAYDYWGQGTQVTVSS | low polyreactivity
13 | QVQLVESGGGLVQAGGSLRLSCAASGSTFEANAMGWYRQAPGKERELVAVITRTGGSTYYADSVKGRFTISRDNAKNTVYLQMNSLKPVDTAVYYCAADGVVPGRFFWPAHEYDYWGQGTQVTVSS | low polyreactivity
14 | QVQIVESGGGLVQAGGSLRLSCAACGRIFTWNVMGWYRQAPGKEREFVAAITYSGGRTRYADSVKGRFTISRDIAKNTVYLQMNSLKPEDTAFYYCAATSRGTDYWGQGTQVTVSS | high polyreactivity
15 | QVQLVESGGGLVQAGGSLRLSCAASGRIFIRNAMGWYRQAPGKERELVAAITSDGGSTDYADSVKGRFTISRDNAKNTVYLQMNSLIPEDTAVYYCAATGSGYDYWGQGTQVTVSS | low polyreactivity
16 | QDQLVESGGGLVQAGGTLRLSCAASGYTFDTYALGWYRQAPGKERELVAAISYTGGSTYYADSVKGRFTISRDNAKNTVYLQMNSLKPEDTAVYYCAADFNGYPGGDLYVGYDYWGLGTQVTVSS | low polyreactivity
17 | QVQLVESGGGLVQAGGSLRLSCAASGRIFGLYTIGWYRQAPGKDREFVAGITYSAGRTYYADSVKGRFPISRDNAKNTVYLQMNSLKPEDTAVYYCAARIYSKFTSYGILDSWGQGTQVTVSS | high polyreactivity
18 | QVQLVESGGGLVQAGGSLRLSCAASGLTFYQYAMGWSRQAPGKERELVAAISKSAGSTYYADSVKGRFTISRDNAKNTVYLQMNSLKPEDTAVYYCAARVLRLRYDYWGQGTQVTVSS | high polyreactivity
19 | QVQHVESGGGLVQAGGSLRLSCAASGITFGDNDMGWYRQAPGKERELVASISSGGSTTYADSVKGRFTISRDNAKNTVYLQMNSLKPEDTAVYYCNADYGSSVEYNYWGQGTKVTVSS | low polyreactivity
20 | QVQLVESGGGLVQAGGSLRVSCAASGFIFTGYTMGWYRQAPGKERELLAAVSYRGGSTYYADSVKGRFTISRDNAKNTVYLQMNSLKPEDTAVNYCNAVWSNFRLGYDYWGQGTQVTVSS | high polyreactivity
21 | QVQLVESGGGLVQAGGSLRLTCAASGRTFGVYAMGWYRQAPGKERELVADITSGGGTYYADSVKGRFTILRDNAKNTVYLQMNSLKPEDTAVYYCAARKWYYAYEYWGQGTQVTVSS | high polyreactivity
